Reference: patent publication US20150344570A1 (published 2015)

T1: FcgRIIaR (human, UniProt P12318 34-217)
T1 construct: extracellular domain; also called FcγRIIa R; FcgRIIa type R; not shown: His tag attached to the C terminus
T1 sequence (looked up): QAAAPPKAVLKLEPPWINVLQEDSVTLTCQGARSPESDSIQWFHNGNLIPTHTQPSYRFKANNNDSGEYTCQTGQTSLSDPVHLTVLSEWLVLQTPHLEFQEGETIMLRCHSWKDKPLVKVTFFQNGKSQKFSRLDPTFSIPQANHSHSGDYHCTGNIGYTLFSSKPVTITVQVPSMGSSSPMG

T2: FcgRIIaH (human, UniProt P12318 34-217)
T2 construct: extracellular domain; also called FcγRIIa H; FcgRIIa type H; not shown: His tag attached to the C terminus
T2 sequence (looked up): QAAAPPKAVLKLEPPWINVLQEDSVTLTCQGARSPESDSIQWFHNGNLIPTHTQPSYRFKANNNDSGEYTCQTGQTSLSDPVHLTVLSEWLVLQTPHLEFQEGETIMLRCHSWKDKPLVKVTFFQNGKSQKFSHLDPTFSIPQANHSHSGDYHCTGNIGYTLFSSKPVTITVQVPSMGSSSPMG

T3: FcgRIIb (human, UniProt P31994 43-217)
T3 construct: extracellular domain; also called FcγRIIb; 2b; not shown: His tag attached to the C terminus
T3 sequence (looked up): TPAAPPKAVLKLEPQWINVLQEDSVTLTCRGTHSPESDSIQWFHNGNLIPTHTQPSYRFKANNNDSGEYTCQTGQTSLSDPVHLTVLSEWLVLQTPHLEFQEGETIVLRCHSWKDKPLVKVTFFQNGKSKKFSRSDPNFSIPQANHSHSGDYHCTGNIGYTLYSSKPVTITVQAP


Legend:
Assay in all cases: SPR (Biacore); KD of H240-Kn033/H240-Hl033/L73-k0 divided by KD of this variant
[1] = biological target: T1, FcgRIIaR
Experimental: (§1) H240-Kn204/H240-Hl211/L73-k0 and H240-Kn205/H240-Hl212/L73-k0 were prepared according to the method of Reference Example 1, by combining H240-Kn204 as one of the H chains and L73-k0 as the L chains with H240-Hl211 as the other H chain, and by combining H240-Kn205 as one of the H chains and L73-k0 as the L chains with H240-Hl212 as the other H chain, and then expressing them. The binding of the prepared variants to FcgRIa, FcgRIIaR, FcgRIIaH, FcgRIIb, FcgRIIIaF, and FcgRIIIaV was measured according to the method of Reference Example 8.
(§2) “fold 2aR”, “fold 2aH”, “fold 2b”, “fold 3aF”, and “fold 3aV” show the relative binding activity of each variant to FcgRIIaR, FcgRIIaH, FcgRIIb, FcgRIIIaF, and FcgRIIIaV, respectively, when the binding activity of H240-Kn033/H240-Hl033/L73-k0, a variant produced by introducing only alterations that promote formation of a heterodimerized antibody into a native IgG1, is defined as 1. Specifically, they are values obtained by dividing the KD value of H240-Kn033/H240-Hl033/L73-k0 for each FcgR by the KD value of an individual variant for each FcgR.
(§3) Analysis of interaction between objective antibody and the FcγR was carried out using Biacore T100 (GE Healthcare), Biacore T200, Biacore A100, and Biacore 4000. HBS-EP+ (GE Healthcare) was used as the running buffer, and the measurement temperature was set to 25° C. Chips produced by immobilizing the antigen peptide by the amine coupling method to a Series S sensor Chip CM5 (GE Healthcare), chips produced by allowing preliminarily biotinylated antigen peptides to interact with and immobilize onto a Series S Sensor Chip SA (certified) (GE Healthcare), chips produced by immobilizing Protein L (ACTIGEN, BioVision) to Series S Sencor Chip CM5 (GE Healthcare), or chips produced by immobilizing Protein A/G (Thermo Scientific) to Series S Sencor Chip CM5 (GE Healthcare) were used. Antibodies of interest were captured onto these chips, and allowed to interact to each FcγR diluted with running buffer.

[2] = biological target: T2, FcgRIIaH
Experimental: as §1, §2, §3

[3] = biological target: T3, FcgRIIb
Experimental: as §1, §2, §3

[4] = biological target: T4, FcgRIIIaF (human, UniProt P08637 17-208)
T4 construct: extracellular domain; also called FcγRIIIa F; 3aF; not shown: His tag attached to the C terminus
Experimental: as §1, §2, §3

[5] = biological target: T5, FcgRIIIaV (human, UniProt P08637 17-208)
T5 construct: extracellular domain; also called FcγRIIIa V; 3aV; not shown: His tag attached to the C terminus
Experimental: as §1, §2, §3

T4 sequence (P08637 17-208): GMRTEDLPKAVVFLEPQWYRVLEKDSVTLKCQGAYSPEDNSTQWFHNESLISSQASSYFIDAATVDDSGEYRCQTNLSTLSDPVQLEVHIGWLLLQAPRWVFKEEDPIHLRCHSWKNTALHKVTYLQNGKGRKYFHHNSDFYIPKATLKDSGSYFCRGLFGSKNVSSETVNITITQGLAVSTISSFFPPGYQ
T5 sequence (P08637 17-208 F176V limits assumed): as the sequence (P08637 17-208) above, with F160V counted along it

Binder	fold 2aR [1] [fold]	fold 2aH [2] [fold]	fold 2b [3] [fold]	fold 3aF [4] [fold]	fold 3aV [5] [fold]
H240-Kn189/H240-Hl068/L73-k0 (antibody, human IgG1, kappa, Anti-epiregulin heterodimerized IgG1, knobs-into-holes) heavy 1: QDQLVQSGAEVKKPGASVKVSCKASGFNIKDTYIQWVRQAPGQGLEWMGRIDPLRKQTKYREKFEGRVTITADTSTNTAYMELSSLRSEDTAVYYCVRSGREFDYWGQGTLVTVSSASTKGPSVFPLAPSSKSTSGGTAALGCLVKDYFPEPVTVSWNSGALTSGVHTFPAVLQSSGLYSLSSVVTVPSSSLGTQTYICNVNHKPSNTKVDKKVEPKSCDKTHTCPPCPAPESYWGPMVFLFPPKPKDTLMISRTPEVTCVVVDVSDEDPEVKFNWYVDGVEVHNAKTKPREEQYNATYRVVSVLTVLHQDWLNGKEYKCKVSNKDLPAPIEKTISKAKGQPREPQVCTLPPSRDELTKNQVSLWCLVKGFYPSDIAVEWESNGQPENNYKTTPPVLDSDGSFFLYSKLTVDKSRWQQGNVFSCSVMHEALHNHYTQKSLSLSP heavy 2: QDQLVQSGAEVKKPGASVKVSCKASGFNIKDTYIQWVRQAPGQGLEWMGRIDPLRKQTKYREKFEGRVTITADTSTNTAYMELSSLRSEDTAVYYCVRSGREFDYWGQGTLVTVSSASTKGPSVFPLAPSSKSTSGGTAALGCLVKDYFPEPVTVSWNSGALTSGVHTFPAVLQSSGLYSLSSVVTVPSSSLGTQTYICNVNHKPSNTKVDKKVEPKSCDKTHTCPPCPAPELLGGPSVFLFPPKPKDTLMISRTPEVTCVVVDVSHEEPEVKFNWYVDGVEVHNAKTKPREEQYNSTYRVVSVLTVLHQDWLNGKEYKCKVSNDALPKPIEETISKAKGQPREPQVYTLPPSRCELTKNQVSLSCAVKGFYPSDIAVEWESNGQPENNYKTTPPVLDSDGSFFLVSKLTVDKSRWQQGNVFSCSVMHEALHNHYTQKSLSLSP light: DIQMTQSPSSLSASVGDRVTITCRASQDIHKYIAWYQQKPGQAPRLLIQYTSTLQPGVPSRFSGSGSGTDYTFTISSLQPEDIATYYCLQYEQLRTFGGGTKVEIKRTVAAPSVFIFPPSDEQLKSGTASVVCLLNNFYPREAKVQWKVDNALQSGNSQESVTEQDSKDSTYSLSSTLTLSKADYEKHKVYACEVTHQGLSSPVTKSFNRGEC	32.2	10.8	22	90.6	92.3
H240-Kn198/H240-Hl076/L73-k0 (antibody, human IgG1, kappa, Anti-epiregulin heterodimerized IgG1, knobs-into-holes) heavy 1: QDQLVQSGAEVKKPGASVKVSCKASGFNIKDTYIQWVRQAPGQGLEWMGRIDPLRKQTKYREKFEGRVTITADTSTNTAYMELSSLRSEDTAVYYCVRSGREFDYWGQGTLVTVSSASTKGPSVFPLAPSSKSTSGGTAALGCLVKDYFPEPVTVSWNSGALTSGVHTFPAVLQSSGLYSLSSVVTVPSSSLGTQTYICNVNHKPSNTKVDKKVEPKSCDKTHTCPPCPAPELQWGPMVFLFPPKPKDTLMISRTPEVTCVVVDVSDEEPEVKFNWYVDGVEVHNAKTKPREEQYNATYRVVSVLTVLHQDWLNGKEYKCKVSNKALPAPIEKTISKAKGQPREPQVCTLPPSRDELTKNQVSLWCLVKGFYPSDIAVEWESNGQPENNYKTTPPVLDSDGSFFLYSKLTVDKSRWQQGNVFSCSVMHEALHNHYTQKSLSLSP heavy 2: QDQLVQSGAEVKKPGASVKVSCKASGFNIKDTYIQWVRQAPGQGLEWMGRIDPLRKQTKYREKFEGRVTITADTSTNTAYMELSSLRSEDTAVYYCVRSGREFDYWGQGTLVTVSSASTKGPSVFPLAPSSKSTSGGTAALGCLVKDYFPEPVTVSWNSGALTSGVHTFPAVLQSSGLYSLSSVVTVPSSSLGTQTYICNVNHKPSNTKVDKKVEPKSCDKTHTCPPCPAPELLGGPSVFLFPPKPKDTLMISRTPEVTCVVVDVSHEEPEVKFNWYVDGVEVHNAKTKPREEQYNSTYRVVSVLTVLHQDWLNGKEYKCKVSNDALPMPIEETISKAKGQPREPQVYTLPPSRCELTKNQVSLSCAVKGFYPSDIAVEWESNGQPENNYKTTPPVLDSDGSFFLVSKLTVDKSRWQQGNVFSCSVMHEALHNHYTQKSLSLSP light: DIQMTQSPSSLSASVGDRVTITCRASQDIHKYIAWYQQKPGQAPRLLIQYTSTLQPGVPSRFSGSGSGTDYTFTISSLQPEDIATYYCLQYEQLRTFGGGTKVEIKRTVAAPSVFIFPPSDEQLKSGTASVVCLLNNFYPREAKVQWKVDNALQSGNSQESVTEQDSKDSTYSLSSTLTLSKADYEKHKVYACEVTHQGLSSPVTKSFNRGEC	1.2	3.7	0.5	193	88.9
H240-Kn199/H240-Hl068/L73-k0 (antibody, human IgG1, kappa, Anti-epiregulin heterodimerized IgG1, knobs-into-holes) heavy 1: QDQLVQSGAEVKKPGASVKVSCKASGFNIKDTYIQWVRQAPGQGLEWMGRIDPLRKQTKYREKFEGRVTITADTSTNTAYMELSSLRSEDTAVYYCVRSGREFDYWGQGTLVTVSSASTKGPSVFPLAPSSKSTSGGTAALGCLVKDYFPEPVTVSWNSGALTSGVHTFPAVLQSSGLYSLSSVVTVPSSSLGTQTYICNVNHKPSNTKVDKKVEPKSCDKTHTCPPCPAPELYWGPMVFLFPPKPKDTLMISRTPEVTCVVVDVSDEDPEVKFNWYVDGVEVHNAKTKPREEQYNATYRVVSVLTVLHQDWLNGKEYKCKVSNKDLPAPIEKTISKAKGQPREPQVCTLPPSRDELTKNQVSLWCLVKGFYPSDIAVEWESNGQPENNYKTTPPVLDSDGSFFLYSKLTVDKSRWQQGNVFSCSVMHEALHNHYTQKSLSLSP heavy 2: QDQLVQSGAEVKKPGASVKVSCKASGFNIKDTYIQWVRQAPGQGLEWMGRIDPLRKQTKYREKFEGRVTITADTSTNTAYMELSSLRSEDTAVYYCVRSGREFDYWGQGTLVTVSSASTKGPSVFPLAPSSKSTSGGTAALGCLVKDYFPEPVTVSWNSGALTSGVHTFPAVLQSSGLYSLSSVVTVPSSSLGTQTYICNVNHKPSNTKVDKKVEPKSCDKTHTCPPCPAPELLGGPSVFLFPPKPKDTLMISRTPEVTCVVVDVSHEEPEVKFNWYVDGVEVHNAKTKPREEQYNSTYRVVSVLTVLHQDWLNGKEYKCKVSNDALPKPIEETISKAKGQPREPQVYTLPPSRCELTKNQVSLSCAVKGFYPSDIAVEWESNGQPENNYKTTPPVLDSDGSFFLVSKLTVDKSRWQQGNVFSCSVMHEALHNHYTQKSLSLSP light: DIQMTQSPSSLSASVGDRVTITCRASQDIHKYIAWYQQKPGQAPRLLIQYTSTLQPGVPSRFSGSGSGTDYTFTISSLQPEDIATYYCLQYEQLRTFGGGTKVEIKRTVAAPSVFIFPPSDEQLKSGTASVVCLLNNFYPREAKVQWKVDNALQSGNSQESVTEQDSKDSTYSLSSTLTLSKADYEKHKVYACEVTHQGLSSPVTKSFNRGEC	37	19.3	25.4	126	117
